This data set is described as follows: yeast display, Sf9 membrane polyspecificity reagent, FACS + sequencing; frameworks hold sequencing errors. In a few lines: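 Galactose induction of a Saccharomyces cerevisiae BJ5465 synthetic nanobody display library ran 36–48 hours. The cells were then stained for 1 hour at 4 °C with 10% biotinylated, detergent-solubilized Sf9 membrane reagent, pulled down on streptavidin microbeads and FACS-sorted into low and high (top ~1%) gates on expression and reagent-binding fluorescence. Labels for polyreactivity follow the gate of origin.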
As for “QVLLVESGGGLVQAGGSLRVSCAASGFTFYGYAMGWYRQAPGKERELVAARSSTGGRTYYADSVKGRFTISRDNAKNTVYLQMNSLKPEDTAVYYCNKVWRFAEHNYWGQGTQVTVSS”, the “polyreactivity (PSR sort gate)” value was “high polyreactivity”. As for “QVLLVESGGGLVQAGGSLRVSCAASGSTFPYYAMGWYRQAPGKERELVAAITSSASTYYADSVKGRFTISRDNAKNTVYLQMNSLKPEDTAVYYCAVRTPYRLSRWRVGYWGQGTQVTVSS”, the “polyreactivity (PSR sort gate)” value is recorded as “high polyreactivity”. The value for “QVLLVESGGGLVQAGGSLSLSCAASGLIFVNAMGWYRQAPGKEREFVAAITYSTGSTYYADSVKGRFTISRDNAKNTVYLQMNSLKPEDTAFYYCAKDRSGHGTERDDWGQGTQVTVSS” was “low polyreactivity”; that for “QVLLVESGGGLVQAGGSLSLSCAASGRTFFNNAMGWYRQAPGQEREFVAAISRSGSSTYYAVSVKGRFTISRDNAKNTVYLQMNSLKPEHTAVYYCASYLYYYSAYGYWGQGTQVTVSS” was “high polyreactivity”; that for “QVNLVESGGGLVQAGCSLRITCADSGRTFKHNAMGWYRQAPGKERQLVAAISRRGGSTYFADSVKGRFTISRDNAKNTVYLQMNRLKPDDTAVYYCNAGYSTFLQYYGEVWKKGCYWGQGTQVTVSS” was “high polyreactivity”. With “QVPLVESGGGLLQAGGSLRLSCSASGYTFSKYAMGWYRQAPGKERELVAAISFSGGSTYYADSVKGRFTISRDNAKNTVYLLMNSLKPEDTAVYYCDKYTITNYDYWGQGTLVTVSS”, the “polyreactivity (PSR sort gate)” value was “low polyreactivity”. Consider “QVPLVESGGGLVQAGGSLRIRCAASGSIFAGNALGWYRQAPGKEWELVAAIARRGGSTYYADSVKGRFTISRDNAKNTVYLQMNSLKPEDTAVYYCNDLLRYAYHAAFGYWGQATQVTVSS”, for which the “polyreactivity (PSR sort gate)” value is “high polyreactivity”. In the case of “QVPLVESGGGLVQAGGSLRISCAASGSILQYYALGWYRQAPGKERELVASISSSSGSTYYADSVKGRFTISRDNAKNTVYLQMNSLKPEDTAVYYCNARGWTLAADFGYWGQATQVTVSS”, the “polyreactivity (PSR sort gate)” value is “low polyreactivity”. The entry for “QVPLVESGGGLVQAGGSLRISCAASGSTIVGYSMGWYRQAHGKERELVADITSGGGITYYADSVKGRFTISRDNAKNTVYLQMNSLKPEYSAVYYCAARVVEIFHWAGDYWGQGTQVTVSS” is “low polyreactivity”; for “QVPLVESGGGLVQAGGSLRLSCAASGFIFSSNARGWYRQAPGKERELVARITWSDGSTYYADSVKGRFTISRDNAKKTVYLQMNSLKPEDTAVYYCAKGRDATHYEYYLYSMDYWGQGTQVTVSS” it is “low polyreactivity”; for “QVPLVESGGGLVQAGGSLRLSCAASGGIFRLYAMGWYRLAPGKEREVVASLSGDGDSTYYADSVQGRFTISRDNAKNTVYLQMNSLKPEDTAVYYCARQPYYFLSRPPYFRKYYYWGQGTQVTVSS” it is “high polyreactivity”. With “QVPLVESGGGLVQAGGSLRLSCAASGHTFRFYTMGWYRQAPGKEREFVAAIRRRTGSTYYADSVKGRFTISRDNAKNTVYLQMNSLKPEDTAVYYCAAESRYYYRFYYGYHYDYWGQGTQVTVSS”, the “polyreactivity (PSR sort gate)” value is reported as “high polyreactivity”. The value for “QVPLVESGGGLVQAGGSLRLSCAASGITFYYYTMGWYIQAPGKERELVAGITRGGRRYDADSVKGRFTISRDNAKNPVYLQMNSLKPEDTAVYYCNADDDIQYKGRYNYWGQGTQVTVSS” was “low polyreactivity”; that for “QVPLVESGGGLVQAGGSLRLSCAASGRIFGTNTMGWYRQAPGKEREWVAAITWSGGSTYYADSGTGRFTISRDNAKNPVYLQMNSLNPEDTAGYYCNVESAYAYHGPVDYWGQGTQVTVSS” was “low polyreactivity”. On to “QVPLVESGGGLVQAGGSLRLSCAASGRIFLRYDIGWYRKAPGKERELVAAIPRSGGSTYYADSVKGRFTISRDNAKNTVYLQMNSLKPEDTAVYYCAARRWGRVYTTYTGGYWGQGTQVTVSS”, for which the “polyreactivity (PSR sort gate)” value is reported as “high polyreactivity”. As to “QVPLVESGGGLVQAGGSLRLSCAASGRIFYFNDMGWYRQAPGKERELVAAISRSGGSTYYADSVKGRFTISRDNAKNTVYLQMNSLKPEDTAVYYCAAGRDTWPSTYYYWGQGTQVTVSS”, the “polyreactivity (PSR sort gate)” value is “low polyreactivity”. Regarding “QVPLVESGGGLVQAGGSLRLSCAASGSTFTRYAMGWYRQAPGKEREFVAGISSRGSRTYYADSVKGRFTISRDNAKNTVYLQMNSLKPEDTAVYYCAVSGNHVSPPYGYWGQGTQLTVSS”, the “polyreactivity (PSR sort gate)” value was “high polyreactivity”. The entry for “QVPLVESGGGLVQAGGSLRLSCAASGSTFVRYAMGWYRQAPGKERELVAGISRVGNTYYADSVKGRFTISRDNAKNTVYLQMNSLKPEDTAVYYCARSQAVYDGWFAKFGYWGQGTQVTVSS” is “high polyreactivity”. Consider “QVPLVESGGGLVQAGGSLRLSCAASGSTLGRYAMGWYRQAPGKERELVASITWSDDSTYYADSEKGRFTISRDNAKNTVYLQMNSLKPEDTAVYYCAAAGNLYTYRFYYWGQGTQVTLSS”, for which the “polyreactivity (PSR sort gate)” value was “low polyreactivity”. Consider “QVPLVESGGGLVQAGGSLRLSCAASGSTLTSNAMGWYRQAPGKERELVAAIRSGGSTNYADSVKGRFTISRDNAKNTVYLQMNSLKPEDTAVYYCNTDFLWQGYGYSRVSYDYWGQGTQVTVSS”, for which the “polyreactivity (PSR sort gate)” value is on record as “low polyreactivity”. As for “QVPLVESGGGLVQAGGSLRLSCAASGSTLWVYAMGWSRQAPGKERELVAAITQSTGDTHYADSVKGRFTISRDNAKNTVYLQMNSLKPEDTAVYYCAADSYLSVYDPYGDWGQGTQVTVSS”, the “polyreactivity (PSR sort gate)” value is “low polyreactivity”. For the sequence “QVPLVESGGGLVQAGGSLSLSCAASGNIFPSYVMGWYSQAPGKERELVAAITGNGGSTYYADSVKGRFTISRDNAKNTVYLQMNSLTAEDTEVYYCATSAPRLLRYDSSSSPSYDNWGQGTKVTVSS”, the “polyreactivity (PSR sort gate)” value is recorded as “low polyreactivity”. Consider “QVPLVESVGGLVQAGGSLRISCAASGGIFRYYAMGRYRQAPGNERELVAAITSSGTSTYYADSVKGRFTISRDNAKNTVYLQMNSLKPEDTAVYYCAAETYYSIYDYWGQGTQVTVSS”, for which the “polyreactivity (PSR sort gate)” value is recorded as “high polyreactivity”. The entry for “QVPVVASGGGFVQAGGRLRLSCAASGRTFFYNAMGWYRQAPGKERESTYYADSVKGRFTISRDNAKNTVYLQMNSLKPEDTAVYYFAAATAYVAYEGDKGDYWGQGTQVTVSA” is “low polyreactivity”; for “QVQFEESGGGLVQAGGSLRLSCAASGSTFQGYAMGWYRQAPGKERELVAAISRSGGRTYYADSVKGRFTISRDNAKNTVYLQMNSLKPEDTAVYYCAAEGHELTEGDSWGQGTQVTVSS” it is “low polyreactivity”.

For the sequence “QVQFVESGGGLVQAGGSLRLSCAASGSIFALYAMGWYRQAPGKERELVAAISYRGGRTYYADSVKGRFTISRDNAKNTVYLQMNSLKPEDTAVYYCATDFPGKFDYWGQGTQVTVSS”, the “polyreactivity (PSR sort gate)” value was “low polyreactivity”. Consider “QVQFVESGGGLVQAGGSLRLSCAASGSIFIYNAMGWYRQAPGTERELVAAISRGGTNTYYADSVKGRFTISRDNAKNTVYLQMNSLKPEDTAVYYCAARGGYIGSRNNYWGQGTQVTVSS”, for which the “polyreactivity (PSR sort gate)” value was “high polyreactivity”. As to “QVQHEDSGGGLVQAGGSHPLSCAASGSTFRVNAMGWYRQAPGKERELVAAISRRGGSTYYADSVKGRFTISRDNSKNTVYLQMNCLKPEDTAVYYCAAERLGTVQDDYWGQGTQVTVSS”, the “polyreactivity (PSR sort gate)” value is recorded as “high polyreactivity”.

For “QVQHEDSGGGLVQAGGSLRLSCAASGRIFLYYAMGWYRQAPGKERELVAAISSGTSTYYADSVKGRFTISRDNAKNTVYLQMNSLKPEDTAVYYCAAYYYSYPTNGGYGYWGQGTQVTVSS”, the “polyreactivity (PSR sort gate)” value was “low polyreactivity”. Take “QVQHEESGGGLVQAGGSLRISCAASGTTFFTYAMGWYRPAPGKEREFVAAISWSDDSTYYADSVKGRFTISRDYAKNTVYLQMNSLKPEDTAVYYCAAEWGQRGGGGYYYWGQGTQVTVSS”: the “polyreactivity (PSR sort gate)” value is reported as “low polyreactivity”.

For the origin of these results see the nanobody polyreactivity screen of Harvey et al. (2022).
